Positions count from the first letter of the chain named.
Experiments:
MBP-FoxP3ΔN [1] = target: T1, MBP-FoxP3ΔN (Mus musculus, UniProt Q99JB6 188-423); assay: MBP pull-down; EMSA: 0.2 uM DNA, 20 mM Tris pH 7.5, 150 mM NaCl, 1.5 mM MgCl2, 2 mM DTT, 30 min at 4 C; anti-HA bead DNA pull-down: 20 min at room temperature; the EMSA IR-FKHM4g length is taken as 31 bp; conditions: protein: recombinant; tags: His6-MBP; blunt
T1 sequence: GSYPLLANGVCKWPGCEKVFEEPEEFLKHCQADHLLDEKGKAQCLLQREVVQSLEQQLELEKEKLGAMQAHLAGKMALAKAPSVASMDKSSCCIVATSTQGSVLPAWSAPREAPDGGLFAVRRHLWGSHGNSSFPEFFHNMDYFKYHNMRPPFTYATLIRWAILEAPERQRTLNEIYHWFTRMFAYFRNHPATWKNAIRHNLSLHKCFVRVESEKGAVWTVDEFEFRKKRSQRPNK

MBP-FoxP3ΔN [2] = target: T1, MBP-FoxP3ΔN; assay: MBP pull-down; not efficiently bound; EMSA: 0.2 uM DNA, 20 mM Tris pH 7.5, 150 mM NaCl, 1.5 mM MgCl2, 2 mM DTT, 30 min at 4 C; anti-HA bead DNA pull-down: 20 min at room temperature; the EMSA IR-FKHM4g length is taken as 31 bp; conditions: protein: recombinant; tags: His6-MBP; blunt
FoxP3ΔN;NFAT1 (394-680) [3] = target: T2, FoxP3ΔN;NFAT1 (394-680) (Mus musculus;Mus musculus, UniProt Q99JB6;Q60591 188-423;394-680, |); assay: restriction enzyme protection; 1.6 uM FoxP3, 0.4 uM NFAT; XhoI and BamHI protected, EcoRI accessible; EMSA: 0.2 uM DNA, 20 mM Tris pH 7.5, 150 mM NaCl, 1.5 mM MgCl2, 2 mM DTT, 30 min at 4 C; anti-HA bead DNA pull-down: 20 min at room temperature; the EMSA IR-FKHM4g length is taken as 31 bp; conditions: protein: recombinant;recombinant; tags: His6-NusA cleaved (HRV3C);His6-NusA cleaved; blunt
T2 sequence 1: T1 sequence
T2 sequence 2: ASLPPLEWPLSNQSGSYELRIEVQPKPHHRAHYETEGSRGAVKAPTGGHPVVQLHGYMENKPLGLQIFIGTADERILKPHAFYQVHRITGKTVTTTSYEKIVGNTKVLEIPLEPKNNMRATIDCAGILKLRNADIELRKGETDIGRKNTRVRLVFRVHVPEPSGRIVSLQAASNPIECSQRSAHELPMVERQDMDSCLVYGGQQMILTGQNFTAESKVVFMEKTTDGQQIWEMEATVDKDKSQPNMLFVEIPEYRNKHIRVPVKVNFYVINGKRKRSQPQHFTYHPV

MBP-FoxP3ΔN [4] = target: T1, MBP-FoxP3ΔN; assay: MBP pull-down; strong; EMSA: 0.2 uM DNA, 20 mM Tris pH 7.5, 150 mM NaCl, 1.5 mM MgCl2, 2 mM DTT, 30 min at 4 C; anti-HA bead DNA pull-down: 20 min at room temperature; the EMSA IR-FKHM4g length is taken as 31 bp; conditions: protein: recombinant; tags: His6-MBP; blunt
FoxP3ΔN;NFAT1 (394-680) [5] = target: T2, FoxP3ΔN;NFAT1 (394-680); assay: restriction enzyme protection; 3.2 uM FoxP3, 0.4 uM NFAT; XhoI protected, BamHI accessible; EMSA: 0.2 uM DNA, 20 mM Tris pH 7.5, 150 mM NaCl, 1.5 mM MgCl2, 2 mM DTT, 30 min at 4 C; anti-HA bead DNA pull-down: 20 min at room temperature; the EMSA IR-FKHM4g length is taken as 31 bp; conditions: protein: recombinant;recombinant; tags: His6-NusA cleaved (HRV3C);His6-NusA cleaved; blunt
NusA-FoxP2RBR-forkhead = target: T3, NusA-FoxP2RBR-forkhead (Mus musculus, UniProt P58463 447-588); assay: EMSA; equal to IR-FKHM4g; EMSA: 0.2 uM DNA, 20 mM Tris pH 7.5, 150 mM NaCl, 1.5 mM MgCl2, 2 mM DTT, 30 min at 4 C; anti-HA bead DNA pull-down: 20 min at room temperature; the EMSA IR-FKHM4g length is taken as 31 bp; conditions: protein: recombinant; tags: His6-NusA; blunt
T3 sequence: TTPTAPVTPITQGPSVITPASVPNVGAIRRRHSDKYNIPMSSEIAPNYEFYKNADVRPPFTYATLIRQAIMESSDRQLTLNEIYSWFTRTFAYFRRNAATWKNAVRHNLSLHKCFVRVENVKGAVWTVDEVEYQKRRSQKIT

NusA-FoxP4RBR-forkhead = target: T4, NusA-FoxP4RBR-forkhead (Mus musculus, UniProt Q9DBY0 418-577); assay: as above; conditions: protein: recombinant; tags: His6-NusA; blunt
T4 sequence: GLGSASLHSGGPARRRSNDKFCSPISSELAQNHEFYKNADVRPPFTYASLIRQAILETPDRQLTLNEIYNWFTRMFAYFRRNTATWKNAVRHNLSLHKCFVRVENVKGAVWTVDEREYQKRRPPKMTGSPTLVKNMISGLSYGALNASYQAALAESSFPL

NusA-FoxP1RBR-forkhead = target: T5, NusA-FoxP1RBR-forkhead (Mus musculus, UniProt P58462 433-579); assay: as above; conditions: protein: recombinant; tags: His6-NusA; blunt
T5 sequence: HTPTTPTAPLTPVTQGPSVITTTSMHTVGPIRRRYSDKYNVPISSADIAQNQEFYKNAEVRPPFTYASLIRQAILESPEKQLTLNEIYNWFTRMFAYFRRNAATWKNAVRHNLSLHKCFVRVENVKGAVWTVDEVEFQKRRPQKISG

FoxP3ΔN = target: T6, FoxP3ΔN (Mus musculus, UniProt Q99JB6 188-423); assay: EMSA; up to 0.8 uM; nearly undetectable; EMSA: 0.2 uM DNA, 20 mM Tris pH 7.5, 150 mM NaCl, 1.5 mM MgCl2, 2 mM DTT, 30 min at 4 C; anti-HA bead DNA pull-down: 20 min at room temperature; the EMSA IR-FKHM4g length is taken as 31 bp; conditions: protein: recombinant; tags: His6-NusA cleaved (HRV3C); chain copies: 2; blunt
T6 sequence: T1 sequence

B1: FKHM-seq1 (dsDNA)
DNA 1: ATTTGTTTACTCGAGACGCGAAAT
DNA 2: ATTTCGCGTCTCGAGTAAACAAAT
MBP-FoxP3ΔN [1]
  binding result: binds

B2: Major FKHM-seq5 (dsDNA)
DNA 1: AAATGTTTACTAGGAATGCAATGA
DNA 2: TCATTGCATTCCTAGTAAACATTT
MBP-FoxP3ΔN [1]
  binding result: binds

B3: IR-seq5 (dsDNA)
DNA 1: TTAGGAAAATTTTGCATTTCGAAATGCAAAA
DNA 2: TTTTGCATTTCGAAATGCAAAATTTTCCTAA
MBP-FoxP3ΔN [2]
  binding result: no binding

B4: IR-seq1 (dsDNA)
DNA 1: ATTTCGCGTCTCGAGACGCGAAAT
DNA 2: ATTTCGCGTCTCGAGACGCGAAAT
MBP-FoxP3ΔN [1]
  binding result: no binding

B5: FKHM-seq5 (dsDNA)
DNA 1: TTAGGAAAATTTGTTTACTCGAAATGCAAAA
DNA 2: TTTTGCATTTCGAGTAAACAAATTTTCCTAA
MBP-FoxP3ΔN [1]
  binding result: binds

B6: IR-seq3 (dsDNA)
DNA 1: ATGATGCATCTCGAGATGCATCAT
DNA 2: ATGATGCATCTCGAGATGCATCAT
MBP-FoxP3ΔN [1]
  binding result: no binding

B7: IR-FKHM4g (47bp) (dsDNA)
DNA 1: TTAGGAAAATTTGTTTACTCGAGTAAACAGTGGATCCGAATTCATAT
DNA 2: ATATGAATTCGGATCCACTGTTTACTCGAGTAAACAAATTTTCCTAA
FoxP3ΔN;NFAT1 (394-680) [3]
  binding result: binds

B8: IR-seq9 (dsDNA)
DNA 1: TTAGGAAAATTTGTTTTATCGATAAAACAAA
DNA 2: TTTGTTTTATCGATAAAACAAATTTTCCTAA
MBP-FoxP3ΔN [2]
  binding result: no binding

B9: FKHM-seq8 (dsDNA)
DNA 1: TTAGGAAAATTTGTTTACTCGAGGAAACAAA
DNA 2: TTTGTTTCCTCGAGTAAACAAATTTTCCTAA
MBP-FoxP3ΔN [1]
  binding result: binds

B10: FKHM-seq11 (dsDNA)
DNA 1: B9 DNA 1 with G23T, G24T
DNA 2: B9 DNA 2 with C8A, C9A
MBP-FoxP3ΔN [1]
  binding result: binds

B11: IR-seq8 (dsDNA)
DNA 1: B9 DNA 1 with A17C
DNA 2: B9 DNA 2 with T15G
MBP-FoxP3ΔN [2]
  binding result: no binding

B12: IR-seq11 (dsDNA)
DNA 1: B8 DNA 1 with T17A, A24T
DNA 2: B8 DNA 2 with T8A, A15T
MBP-FoxP3ΔN [2]
  binding result: no binding

B13: FKHM-seq9 (dsDNA)
DNA 1: B9 DNA 1 with G23T, G24A
DNA 2: B9 DNA 2 with C8T, C9A
MBP-FoxP3ΔN [1]
  binding result: binds

B14: FKHM-seq3 (dsDNA)
DNA 1: ATTTGTTTACTCGAGATGCATCAT
DNA 2: ATGATGCATCTCGAGTAAACAAAT
MBP-FoxP3ΔN [1]
  binding result: binds

B15: FKHM-seq2 (dsDNA)
DNA 1: ATTTGTTTACTCGAGACGCAAAAT
DNA 2: ATTTTGCGTCTCGAGTAAACAAAT
MBP-FoxP3ΔN [1]
  binding result: binds

B16: Major seq8-seq9 (dsDNA)
DNA 1: GTTTGTTTCCCAGGTAAAACAACC
DNA 2: GGTTGTTTTACCTGGGAAACAAAC
MBP-FoxP3ΔN [4]
  binding result: binds

B17: IR-FKHM11g (54bp) (dsDNA)
DNA 1: TTAGGAAAATTTGTTTACTCGAGTGTACGGTAAACAGTGGATCCGAATTCATAT
DNA 2: ATATGAATTCGGATCCACTGTTTACCGTACACTCGAGTAAACAAATTTTCCTAA
FoxP3ΔN;NFAT1 (394-680) [5]
  binding result: binds

B18: sFKHM (31bp) (dsDNA)
DNA 1: TTAGGAAAATTTGTTTACTCGACGCGGCAAA
DNA 2: TTTGCCGCGTCGAGTAAACAAATTTTCCTAA
NusA-FoxP2RBR-forkhead
  binding result: binds
NusA-FoxP4RBR-forkhead
  binding result: binds
NusA-FoxP1RBR-forkhead
  binding result: binds
FoxP3ΔN
  binding result: no binding

B19: IR-seq2 (dsDNA)
DNA 1: ATTTTGCGTCTCGAGACGCAAAAT
DNA 2: ATTTTGCGTCTCGAGACGCAAAAT
MBP-FoxP3ΔN [1]
  binding result: no binding

B20: sFKHM (22bp) (dsDNA)
DNA 1: TTAGGAAAATTTGTTTACTCGA
DNA 2: TCGAGTAAACAAATTTTCCTAA
FoxP3ΔN
  binding result: no binding

— article doi:10.1101/2022.02.08.479534, “FoxP3 can fold into two distinct dimerization states with divergent functional implications for T cell homeostasis”
